Legend:
HLA-B*07:02 [1] = test: IEDB peptide-MHC binding, purified MHC/competitive/radioactivity; filed as Kd, often an IC50 or EC50 that approximates it; ≥ and ≤ were set here for values at or beyond the usual limits of such assays
HLA-B*35:01 = test: as above; conditions: source organism: Dengue virus 4 Philippines/H241/1956
HLA-B*53:01 = test: as above; conditions: source organism: Dengue virus 4 Philippines/H241/1956
HLA-A*02:01 [2] = test: IEDB peptide-MHC binding, purified MHC/competitive/fluorescence; ≥ and ≤ were set here for values at or beyond the usual limits of such assays
HLA-B*15:01 [3] = test: as above
HLA-A*24:02 = test: as above
HLA-A*68:02 = test: IEDB peptide-MHC binding, purified MHC/competitive/radioactivity; filed as Kd, often an IC50 or EC50 that approximates it; ≥ and ≤ were set here for values at or beyond the usual limits of such assays
HLA-A*32:01 = test: as above; conditions: source organism: Vaccinia virus WR
HLA-B*51:01 = test: as above; conditions: source organism: Dengue virus 4 Philippines/H241/1956
HLA-A*02:01 [4] = test: as above
HLA-A*02:06 = test: as above; conditions: source organism: Homo sapiens
HLA-A*02:02 = test: as above; conditions: source organism: Homo sapiens
HLA-A*02:03 = test: as above; conditions: source organism: Homo sapiens
HLA-A*11:01 = test: IEDB peptide-MHC binding, purified MHC/direct/fluorescence; filed as Kd, often an IC50 or EC50 that approximates it; ≥ and ≤ were set here for values at or beyond the usual limits of such assays
HLA-A*69:01 = test: as above
HLA-A*02:01 [5] = test: as above
HLA-B*40:01 = test: as above
HLA-B*15:01 [6] = test: as above
HLA-B*08:01 = test: as above
HLA-A*01:01 = test: as above
HLA-B*58:01 = test: as above
HLA-B*07:02 [7] = test: as above
HLA-A*24:03 = test: as above
HLA-B*27:05 = test: as above
HLA-A*26:01 = test: as above
HLA-A*03:01 = test: as above
HLA-B*44:02 = test: as above; conditions: source organism: Giardia lamblia ATCC 50803
HLA-A*31:01 = test: as above; conditions: source organism: Giardia lamblia ATCC 50803
HLA-B*57:01 = test: as above; conditions: source organism: Giardia lamblia ATCC 50803
[8] = source organism: Dengue virus 4 Philippines/H241/1956
[9] = source organism: Vaccinia virus Copenhagen
[10] = source organism: Dengue virus 2 Jamaica/1409/1983
[11] = source organism: Vaccinia virus
[12] = source organism: Sudan ebolavirus
[13] = source organism: Zaire ebolavirus
[14] = source organism: Pasteurella multocida
[15] = source organism: Histophilus somni
[16] = source organism: Dengue virus 1 Brazil/97-11/1997
[17] = source organism: Giardia lamblia ATCC 50803

IPVTMTLWYM
Kd (HLA-B*07:02 [1]; [8]): 0.744 µM | Kd (HLA-B*35:01): 0.156 µM | Kd (HLA-B*53:01): 0.0692 µM

ISIKLTDSL
IC50 (HLA-A*02:01 [2]; [9]): 7.32 µM | IC50 (HLA-B*15:01 [3]; [9]): 5.59 µM | IC50 (HLA-A*24:02; [9]): 3.66 µM

LAANAICSAV
Kd (HLA-A*68:02; [10]): 0.00904 µM

LETDLRSEF
IC50 (HLA-B*15:01 [3]; [11]): 47.5 µM

LLLWFNYLF
IC50 (HLA-A*02:01 [2]; source organism: Variola virus): 0.125 µM | IC50 (HLA-B*15:01 [3]; source organism: Variola virus): ≥ 2970 µM | Kd (HLA-A*32:01): 0.00145 µM

LLQLPRDKF
IC50 (HLA-A*02:01 [2]; [12]): 13.3 µM | IC50 (HLA-B*15:01 [3]; [12]): 10.6 µM | IC50 (HLA-A*24:02; [12]): 4.77 µM

LMHNQDGLI
IC50 (HLA-A*02:01 [2]; [13]): 1.72 µM | IC50 (HLA-B*15:01 [3]; [13]): 67.4 µM | IC50 (HLA-A*24:02; [13]): 24.6 µM

LPIRYQTPAV
Kd (HLA-B*51:01): 0.198 µM | Kd (HLA-B*07:02 [1]; [8]): 0.0267 µM | Kd (HLA-B*35:01): 0.11 µM

LQSPPIREA
IC50 (HLA-A*02:01 [2]; [12]): 14.3 µM | IC50 (HLA-B*15:01 [3]; [12]): 37.8 µM

NPNMIDKTPV
Kd (HLA-B*07:02 [1]; source organism: Dengue virus 4 Thailand/0348/1991): 0.402 µM

NVSIPWTHK
Kd (HLA-A*02:01 [4]; source organism: Hepatitis B virus subtype adw2): ≥ 35 µM

QLADETLLKV
Kd (HLA-A*68:02; source organism: Homo sapiens): 11.9 µM | Kd (HLA-A*02:06): 0.0614 µM | Kd (HLA-A*02:02): 0.014 µM

QLYKEQLAKL
Kd (HLA-A*02:01 [4]; source organism: Homo sapiens): 0.078 µM | Kd (HLA-A*68:02; source organism: Homo sapiens): 7.62 µM | Kd (HLA-A*02:03): 0.0163 µM | Kd (HLA-A*02:02): 0.00463 µM

QMKDCMREL
Kd (HLA-A*68:02; source organism: Homo sapiens): ≥ 60 µM

QQKNSQKGQ
IC50 (HLA-B*15:01 [3]; [13]): ≥ 93.5 µM

QVMLLILCV
Kd (HLA-A*68:02; [10]): 1.74 µM

QYPAFVLFI
Kd (HLA-A*11:01; [14]): 2.82 µM | Kd (HLA-A*69:01; [15]): ≥ 20 µM | Kd (HLA-A*02:01 [5]; [15]): ≥ 20 µM | Kd (HLA-B*40:01; [15]): ≥ 20 µM | Kd (HLA-B*15:01 [6]; [15]): ≥ 20 µM | Kd (HLA-B*08:01; [15]): ≥ 20 µM | Kd (HLA-A*01:01; [15]): ≥ 20 µM | Kd (HLA-B*58:01; [15]): ≥ 20 µM | Kd (HLA-B*07:02 [7]; [15]): ≥ 20 µM | Kd (HLA-A*24:03; [14]): 0.00192 µM | Kd (HLA-B*27:05; [15]): ≥ 20 µM | Kd (HLA-A*26:01; [15]): ≥ 20 µM | Kd (HLA-A*03:01; [15]): ≥ 20 µM

RPAKNGTVMD
Kd (HLA-B*07:02 [1]; [16]): 0.317 µM

RPRGHREFC
Kd (HLA-A*11:01; [17]): ≥ 20 µM | Kd (HLA-A*69:01; [17]): ≥ 20 µM | Kd (HLA-A*02:01 [5]; [17]): ≥ 20 µM | Kd (HLA-B*40:01; [17]): ≥ 20 µM | Kd (HLA-B*15:01 [6]; [17]): ≥ 20 µM | Kd (HLA-B*08:01; [17]): 8.07 µM | Kd (HLA-A*01:01; [17]): ≥ 20 µM | Kd (HLA-B*44:02): ≥ 20 µM | Kd (HLA-B*58:01; [17]): ≥ 20 µM | Kd (HLA-B*07:02 [7]; [17]): 0.0984 µM | Kd (HLA-A*31:01): ≥ 20 µM | Kd (HLA-A*24:03; [17]): ≥ 20 µM | Kd (HLA-B*27:05; [17]): ≥ 20 µM | Kd (HLA-A*26:01; [17]): ≥ 20 µM | Kd (HLA-A*03:01; [17]): ≥ 20 µM

SILRVGTLT
Kd (HLA-A*02:01 [4]; source organism: Lassa virus Josiah): ≥ 25 µM

SKNNIGIEY
IC50 (HLA-B*15:01 [3]; [11]): ≥ 87.2 µM

SLAIDAYPL
Kd (HLA-A*69:01; source organism: SARS-CoV1): 0.272 µM | Kd (HLA-A*02:01 [5]; source organism: SARS-CoV1): 0.145 µM | Kd (HLA-B*40:01; source organism: SARS-CoV1): ≥ 31.5 µM | Kd (HLA-B*15:01 [6]; source organism: SARS-CoV1): 1.08 µM | Kd (HLA-B*08:01; source organism: SARS-CoV1): 9.19 µM | Kd (HLA-B*07:02 [7]; source organism: SARS-CoV1): ≥ 33.4 µM

SLAKHGEYA
IC50 (HLA-A*02:01 [2]; [13]): 7.2 µM | IC50 (HLA-B*15:01 [3]; [13]): ≥ 127 µM

SPPPVGKAEL
Kd (HLA-B*07:02 [1]; [10]): 0.0673 µM

TIAVSTANI
Kd (HLA-A*68:02; [8]): 0.0256 µM

TSLSMTCIAV
Kd (HLA-A*68:02; [16]): 13.5 µM

TTATITPQA
Kd (HLA-A*68:02; source organism: Dengue virus 1 Nauru/West Pac/1974): 0.00112 µM

TTPFGQQRV
Kd (HLA-A*68:02; [8]): 0.102 µM

VFAPKQKMF
IC50 (HLA-B*15:01 [3]; [11]): 14 µM | IC50 (HLA-A*24:02; [11]): 0.0261 µM

YMYAATNTH
Kd (HLA-B*15:01 [6]; [17]): 0.04 µM | Kd (HLA-B*58:01; [17]): ≥ 20 µM | Kd (HLA-B*57:01): ≥ 20 µM
